In article PMC7352323, “Regulation of Actin Filament Length by Muscle Isoforms of Tropomyosin and Cofilin” (International Journal of Molecular Sciences, 2020):

Columns and labels:
Details in all cases: both partners purified
[1] = target: T1, F-actin (actin isolated from rabbit pectoral muscle, polymerised) (rabbit, UniProt P68135 1-377); experiment: co-sedimentation; dissociation of tropomyosin from the filament by cofilin-2: 3 µM F-actin, 1 µM Tpm1.1 or Tpm3.12, 0-10 µM cofilin-2; tropomyosin/actin densitometric ratio against cofilin-2/actin molar ratio, fit to a modified Hill equation; same gels as for cofilin-2 binding in the presence of tropomyosin
[2] = target: T2, F-actin initially saturated with Tpm1.1 (rabbit | human, UniProt P68135 1-377; P09493 1-284); experiment: co-sedimentation; 0-10 µM cofilin-2 with 3 µM F-actin alone or initially saturated with 1 µM Tpm1.1 or Tpm3.12, 20 min at room temperature; 100 mM NaCl, 2 mM MgCl2, 1 mM DTT, pH 7.5; apparent Kapp from the Hill equation, K0 and ω from the McGhee and von Hippel linear lattice model
[3] = target: T1, F-actin (actin isolated from rabbit …); experiment: as above
[4] = target: T3, F-actin initially saturated with Tpm3.12 (rabbit | human, UniProt P68135 1-377; P06753 1-285); experiment: as above
[5] = target: T2, F-actin initially saturated with Tpm1.1; experiment: as above; remark: listed apart in the source
[6] = target: T1, F-actin (actin isolated from rabbit …); experiment: as above; remark: listed apart in the source
[7] = target: T3, F-actin initially saturated with Tpm3.12; experiment: as above; remark: listed apart in the source

B1: mouse cofilin-2, recombinant, GST tag removed (natural protein)
chain: MASGVTVNDEVIKVFNDMKVRKSSTQEEIKKRKKAVLFCLSDDKRQIIVEEAKQILVGDIGDTVEDPYTSFVKLLPLNDCRYALYDATYETKESKKEDLVFIFWAPESAPLKSKMIYASSKDAIKKKFTGIKHEWQVNGLDDIKDRSTLGEKLGGSVVVSLEGKPL
notes: cofilin-2 (muscle isoform of cofilin), mouse cDNA; MW 18,500 Da printed; The printed MW of 18,500 Da fits the whole protein
[1]
  cofilin-2/actin molar ratio at 50% dissociation of Tpm1.1 from F-actin: 0.75 cofilin-2/actin
  cofilin-2/actin molar ratio at 50% dissociation of Tpm3.12 from F-actin: 0.71 cofilin-2/actin
[2]
  K0 (affinity for an isolated binding site, linear lattice model): 0.17 µM⁻¹
  Ka: 6.3e+06 M⁻¹
  ω (cooperativity coefficient, linear lattice model): 12
[3]
  K0 (affinity for an isolated binding site, linear lattice model): 0.01 µM⁻¹
  Ka: 5.7e+06 M⁻¹
  ω (cooperativity coefficient, linear lattice model): 50
[4]
  K0 (affinity for an isolated binding site, linear lattice model): 0.21 µM⁻¹
  Ka: 5.8e+06 M⁻¹
  ω (cooperativity coefficient, linear lattice model): 10
[5]
  stoichiometry N: ~1 cofilin-2 per actin
[6]
  stoichiometry N: ~1 cofilin-2 per actin
[7]
  stoichiometry N: ~1 cofilin-2 per actin
